{"source": "patent US20260266848A1", "about": "“COMPOSITIONS AND METHODS FOR DIAGNOSING AND TREATING DYSTONIA” (Duke University, priority 2023, published 2026)", "molecules": {"B1": {"name": "Srsf7 (protein, UniProt Q8BL97 1-267, looked up)", "Serine/arginine-rich splicing …": "MRSSARGRPLQAATAFFLSLFFFLRRFERGFWLWGGDSETKVYVGNLGTGAGKGELERAFSYYGPLRTVWIARNPPGFAFVEFEDPRDAEDAVRGLDGKVICGSRVRVELSTGMPRRSRFDRPPARRPFDPNDRCYECGEKGHYAYDCHRYSRRRRSRSRSRSHSRSRGRRYSRSRSRSRGRRSRSASPRRSRSVSLRRSRSASLRRSRSGSIIGSRYFQSRSRSRSRSRSISRPRSSRSKSRSPSPKRSRSPSGSPHRSASPERMD"}, "B2": {"name": "Rab6a (protein, UniProt P35279 2-208, looked up)", "Ras-related protein Rab-6A": "SAGGDFGNPLRKFKLVFLGEQSVGKTSLITRFMYDSFDNTYQATIGIDFLSKTMYLEDRTVRLQLWDTAGQERFRSLIPSYIRDSTVAVVVYDITNVNSFQQTTKWIDDVRTERGSDVIIMLVGNKTDLADKRQVSIEEGERKAKELNVMFIETSAKAGYNVKQLFRRVAAALPGMESTQDRSREDMIDIKLEKPQEQPVNEGGCSC"}, "B3": {"name": "Pld3 (protein, UniProt O35405 1-488, looked up)", "5'-3' exonuclease PLD3": "MKPKLMYQELKVPVEEPAGELPLNEIEAWKAAEKKARWVLLVLILAVVGFGALMTQLFLWEYGDLHLFGPNQRPAPCYDPCEAVLVESIPEGLEFPNATTSNPSTSQAWLGLLAGAHSSLDIASFYWTLTNNDTHTQEPSAQQGEEVLQQLQALAPRGVKVRIAVSKPNGPLADLQSLLQSGAQVRMVDMQKLTHGVLHTKFWVVDQTHFYLGSANMDWRSLTQVKELGVVMYNCSCLARDLTKIFEAYWFLGQAGSSIPSTWPRSFDTRYNQETPMEICLNGTPALAYLASAPPPLCPSGRTPDLKALLNVVDSARSFIYIAVMNYLPTMEFSHPRRFWPAIDDGLRRAAYERGVKVRLLISCWGHSDPSMRSFLLSLAALHDNHTHSDIQVKLFVVPTDESQARIPYARVNHNKYMVTERASYIGTSNWSGSYFTETAGTSLLVTQNGHGGLRSQLEAVFLRDWESPYSHDLDTSANSVGNACRLL"}, "B4": {"name": "C1qtnf3 (protein, UniProt Q9BXJ4 23-246, looked up)", "Complement C1q tumor necrosis …": "QDEYMESPQTGGLPPDCSKCCHGDYSFRGYQGPPGPPGPPGIPGNHGNNGNNGATGHEGAKGEKGDKGDLGPRGERGQHGPKGEKGYPGIPPELQIAFMASLATHFSNQNSGIIFSSVETNIGNFFDVMTGRFGAPVSGVYFFTFSMMKHEDVEEVYVYLMHNGNTVFSMYSYEMKGKSDTSSNHAVLKLAKGDEVWLRMGNGALHGDHQRFSTFAGFLLFETK"}, "B5": {"name": "Pura (protein, UniProt P42669 2-321, looked up)", "Transcriptional activator …": "ADRDSGSEQGGAALGSGGSLGHPGSGSGSGGGGGGGGGGGGSGGGGGAPGGLQHETQELASKRVDIQNKRFYLDVKQNAKGRFLKIAEVGAGGNKSRLTLSMSVAVEFRDYLGDFIEHYAQLGPSQPPDLAQAQDEPRRALKSEFLVRENRKYYMDLKENQRGRFLRIRQTVNRGPGLGSTQGQTIALPAQGLIEFRDALAKLIDDYGVEEEPAELPEGTSLTVDNKRFFFDVGSNKYGVFMRVSEVKPTYRNSITVPYKVWAKFGHTFCKYSEEMKKIQEKQREKRAACEQLHQQQQQQQEETTAATLLLQGEEEGEED"}, "B6": {"name": "Pdia4 (protein, UniProt P08003 21-638, looked up)", "Protein disulfide-isomerase A4": "AASAGDAHEDTSDTENATEEEEEEDDDDLEVKEENGVWVLNDGNFDNFVADKDTVLLEFYAPWCGHCKQFAPEYEKIASTLKDNDPPIAVAKIDATSASMLASKFDVSGYPTIKILKKGQAVDYDGSRTQEEIVAKVREVSQPDWTPPPEVTLSLTKDNFDDVVNNADIILVEFYAPWCGHCKKLAPEYEKAAKELSKRSPPIPLAKVDATEQTDLAKRFDVSGYPTLKIFRKGRPFDYNGPREKYGIVDYMIEQSGPPSKEILTLKQVQEFLKDGDDVVIIGLFQGDGDPAYLQYQDAANNLREDYKFHHTFSPEIAKFLKVSLGKLVLTHPEKFQSKYEPRFHVMDVQGSTEASAIKDYVVKHALPLVGHRKTSNDAKRYSKRPLVVVYYSVDFSFDYRAATQFWRNKVLEVAKDFPEYTFAIADEEDYATEVKDLGLSESGEDVNAAILDESGKKFAMEPEEFDSDTLREFVTAFKKGKLKPVIKSQPVPKNNKGPVKVVVGKTFDAIVMDPKKDVLIEFYAPWCGHCKQLEPIYTSLGKKYKGQKDLVIAKMDATANDITNDQYKVEGFPTIYFAPSGDKKNPIKFEGGNRDLEHLSKFIDEHATKRSRTKEEL"}, "B7": {"name": "Tra2b (protein, UniProt P62996 2-288, looked up)", "Transformer-2 protein homolog …": "SDSGEQNYGERESRSASRSGSAHGSGKSARHTPARSRSKEDSRRSRSKSRSRSESRSRSRRSSRRHYTRSRSRSRSHRRSRSRSYSRDYRRRHSHSHSPMSTRRRHVGNRANPDPNCCLGVFGLSLYTTERDLREVFSKYGPIADVSIVYDQQSRRSRGFAFVYFENVDDAKEAKERANGMELDGRRIRVDFSITKRPHTPTPGIYMGRPTYGSSRRRDYYDRGYDRGYDDRDYYSRSYRGGGGGGGGWRAAQDRDQIYRRRSPSPYYSRGGYRSRSRSRSYSPRRY"}, "B8": {"name": "Mdk (protein, UniProt P12025 23-140, looked up)", "Midkine": "KKKEKVKKGSECSEWTWGPCTPSSKDCGMGFREGTCGAQTQRVHCKVPCNWKKEFGADCKYKFESWGACDGSTGTKARQGTLKKARYNAQCQETIRVTKPCTSKTKSKTKAKKGKGKD"}, "B9": {"name": "Ssb (protein, UniProt P32067 1-415, looked up)", "Lupus La protein homolog": "MAENGDNEKMTALEAKICHQIEYYFGDFNLPRDKFLKEQIKLDEGWVPLETMIKFNRLNRLTTDFNVIVQALSKSKAKLMEVSADKTKIRRSPSRPLPEVTDEYKNDVKNRSVYIKGFPTDATLDDIKEWLDDKGQILNIQMRRTLHKTFKGSIFAVFDSIQSAKKFVEIPGQKYKDTNLLILFKEDYFAKKNEERKQSKVEAKLKAKQEHEGRHKPGSTETRALEGKMGCLLKFSGDLDDQTCREDLHFLFSNHGEIKWVDFARGAKEGIILFKEKAKEALEKARNANNGNLLLRNKKVTWKVLEGHAEKEALKKITDDQQESLNKWKSKGGHAGGRFKGSHVFTAARRFKGKGKGNRPGYAGAPKGRGQFHGRRTRFDDDDRRRGPMKRGRDGRDREEPASKHKKRENGARDK"}, "B10": {"name": "Gsto1 (protein, UniProt O09131 2-240, looked up)", "Glutathione S-transferase …": "SGESSRSLGKGSAPPGPVPEGQIRVYSMRFCPFAQRTLMVLKAKGIRHEVININLKNKPEWFFEKNPLGLVPVLENSQGHLVTESVITCEYLDEAYPEKKLFPDDPYKKARQKMTLESFSKVPPLIASFVRSKRKEDSPNLREALENEFKKLEEGMDNYKSFLGGDSPSMVDYLTWPWFQRLEALELKECLAHTPKLKLWMAAMQQDPVASSHKIDAKTYREYLNLYLQDSPEACDYGL"}}, "data": [{"tested_on": "WT MEF EVs", "assay": "Quantitative LC-MS/MS proteomics of EVs from ISRIB-treated WT MEF cultures", "format": "cell-based, mouse", "conditions": "EV protein abundance, ISRIB-treated WT vs WT", "values": [{"molecule": "B1", "WT + ISRIB/WT Cohen's d": 0.13}, {"molecule": "B2", "WT + ISRIB/WT Cohen's d": 0.44}, {"molecule": "B3", "WT + ISRIB/WT Cohen's d": 1.18}, {"molecule": "B4", "WT + ISRIB/WT Cohen's d": "−0.18"}, {"molecule": "B5", "WT + ISRIB/WT Cohen's d": 0.52}, {"molecule": "B6", "WT + ISRIB/WT Cohen's d": 1.37}, {"molecule": "B7", "WT + ISRIB/WT Cohen's d": 0.54}, {"molecule": "B8", "WT + ISRIB/WT Cohen's d": 1.33}, {"molecule": "B9", "WT + ISRIB/WT Cohen's d": 0.41}, {"molecule": "B10", "WT + ISRIB/WT Cohen's d": 0.04}]}, {"tested_on": "DYT-TOR1A MEF EVs", "assay": "Quantitative LC-MS/MS proteomics of EVs from drug-treated DYT-TOR1A MEF cultures (ritonavir, salubrinal)", "format": "cell-based, mouse", "parameters": "key to RTV Corrective Direction / RTV Corrective Direction, Grwd1 / RTV Corrective Direction, Srrm2 / RTV Corrective Direction, Rbm17 / RTV Corrective Direction, Dcaf8 / RTV Corrective Direction, Edil3 / RTV Corrective Direction, Timp3 / RTV Corrective Direction, Heatr3 / RTV Corrective Direction, Brd4 / RTV Corrective Direction, P3h4 / RTV Corrective Direction, Pacsin3 / RTV Corrective Direction, Naa50 / RTV Corrective Direction, Lpar6 / RTV Corrective Direction, Ndrg1 / RTV Corrective Direction, Kntc1 / RTV Corrective Direction, Cdk11b / RTV Corrective Direction, Sumo1 / RTV Corrective Direction, Lsm4 / RTV Corrective Direction, Hmga2 / RTV Corrective Direction, Cstf1 / RTV Corrective Direction, Tes / RTV Corrective Direction, Sbno1 / RTV Corrective Direction, Unc119b / RTV Corrective Direction, Cfdp1 / RTV Corrective Direction, Sec61b: YES = protein abundance effect opposite to DYT/WT", "conditions": "not given", "values": [{"molecule": "B5", "RTV Corrective Direction": "YES"}, {"molecule": "B9", "RTV Corrective Direction": "YES"}]}, {"tested_on": "DYT-TOR1A MEF EVs", "assay": "Quantitative LC-MS/MS proteomics of EVs from drug-treated DYT-TOR1A MEF cultures (ritonavir, salubrinal)", "format": "cell-based, mouse", "parameters": "key to RTV Corrective Direction / RTV Corrective Direction, Grwd1 / RTV Corrective Direction, Srrm2 / RTV Corrective Direction, Rbm17 / RTV Corrective Direction, Dcaf8 / RTV Corrective Direction, Edil3 / RTV Corrective Direction, Timp3 / RTV Corrective Direction, Heatr3 / RTV Corrective Direction, Brd4 / RTV Corrective Direction, P3h4 / RTV Corrective Direction, Pacsin3 / RTV Corrective Direction, Naa50 / RTV Corrective Direction, Lpar6 / RTV Corrective Direction, Ndrg1 / RTV Corrective Direction, Kntc1 / RTV Corrective Direction, Cdk11b / RTV Corrective Direction, Sumo1 / RTV Corrective Direction, Lsm4 / RTV Corrective Direction, Hmga2 / RTV Corrective Direction, Cstf1 / RTV Corrective Direction, Tes / RTV Corrective Direction, Sbno1 / RTV Corrective Direction, Unc119b / RTV Corrective Direction, Cfdp1 / RTV Corrective Direction, Sec61b: YES = protein abundance effect opposite to DYT/WT", "conditions": "EV protein abundance, DYT + RTV (ritonavir) vs DYT, direction compared with DYT/WT", "values": [{"molecule": "B1", "RTV Corrective Direction": "YES"}, {"molecule": "B2", "RTV Corrective Direction": "YES"}, {"molecule": "B3", "RTV Corrective Direction": "YES"}, {"molecule": "B4", "RTV Corrective Direction": "YES"}, {"molecule": "B6", "RTV Corrective Direction": "YES"}, {"molecule": "B7", "RTV Corrective Direction": "YES"}, {"molecule": "B8", "RTV Corrective Direction": "YES"}, {"molecule": "B10", "RTV Corrective Direction": "YES"}]}, {"tested_on": "DYT-TOR1A MEF EVs", "assay": "Quantitative LC-MS/MS proteomics of EVs from drug-treated DYT-TOR1A MEF cultures (ritonavir, salubrinal)", "format": "cell-based, mouse", "parameters": "key to RTV Corrective Direction / RTV Corrective Direction, Grwd1 / RTV Corrective Direction, Srrm2 / RTV Corrective Direction, Rbm17 / RTV Corrective Direction, Dcaf8 / RTV Corrective Direction, Edil3 / RTV Corrective Direction, Timp3 / RTV Corrective Direction, Heatr3 / RTV Corrective Direction, Brd4 / RTV Corrective Direction, P3h4 / RTV Corrective Direction, Pacsin3 / RTV Corrective Direction, Naa50 / RTV Corrective Direction, Lpar6 / RTV Corrective Direction, Ndrg1 / RTV Corrective Direction, Kntc1 / RTV Corrective Direction, Cdk11b / RTV Corrective Direction, Sumo1 / RTV Corrective Direction, Lsm4 / RTV Corrective Direction, Hmga2 / RTV Corrective Direction, Cstf1 / RTV Corrective Direction, Tes / RTV Corrective Direction, Sbno1 / RTV Corrective Direction, Unc119b / RTV Corrective Direction, Cfdp1 / RTV Corrective Direction, Sec61b: YES = protein abundance effect opposite to DYT/WT", "conditions": "EV protein abundance, ritonavir (RTV)-treated DYT vs DYT", "values": [{"molecule": "B1", "DYT + RTV/DYT Cohen's d": 2.91}, {"molecule": "B2", "DYT + RTV/DYT Cohen's d": 3.14}, {"molecule": "B3", "DYT + RTV/DYT Cohen's d": 0.61}, {"molecule": "B4", "DYT + RTV/DYT Cohen's d": "−3.24"}, {"molecule": "B5", "DYT + RTV/DYT Cohen's d": 2.36}, {"molecule": "B6", "DYT + RTV/DYT Cohen's d": 2.25}, {"molecule": "B7", "DYT + RTV/DYT Cohen's d": 3.28}, {"molecule": "B8", "DYT + RTV/DYT Cohen's d": 3.64}, {"molecule": "B9", "DYT + RTV/DYT Cohen's d": 2.79}, {"molecule": "B10", "DYT + RTV/DYT Cohen's d": 3.45}]}]}
